Source: PMC8138766, “Defining steps in RAVE-catalyzed V-ATPase assembly using purified RAVE and V-ATPase subcomplexes” (The Journal of Biological Chemistry, 2021)
Several values for one entry are separate records, joined by “and”; a condition that tells them apart may be missing. Equal values may be shown once.

Target: RAVE–V1 complex (yeast | yeast (endogenous), UniProt P47104 1-1357; Q03956 1-351; P52286 1-194; P16140 1-517; P32610 1-256; P22203 …, VMA1 intein (284-737) spliced out; Rav2 C-terminal FLAG and Skp1 C-terminal 6xGly-6xHis tags omitted; subunit C (Vma5) only substoichiometric, so omitted; V1 copy numbers (A3B3DE3FG3H) and RAVE 1:1:1)
Experiment: BLI; Octet RED384, 22 °C, PBS or TBSE with 0.5 mg/ml BSA; MBP-C (5 μg/ml) captured by anti-MBP antibody on anti-mouse IgG sensors; RAVE–V1 or RAVE in solution at varied concentrations, 2400 s association and 2400 s dissociation; global single-site fit
Details: both partners purified

B1: maltose-binding protein (MBP)–tagged subunit C (natural protein, yeast, UniProt P31412 1-392, looked up)
chain: MATALYTANDFILISLPQNAQPVTAPGSKTDSWFNETLIGGRAFVSDFKIPEFKIGSLDTLIVESEELSKVDNQIGASIGKIIEILQGLNETSTNAYRTLPINNMPVPEYLENFQWQTRKFKLDKSIKDLITLISNESSQLDADVRATYANYNSAKTNLAAAERKKTGDLSVRSLHDIVKPEDFVLNSEHLTTVLVAVPKSLKSDFEKSYETLSKNVVPASASVIAEDAEYVLFNVHLFKKNVQEFTTAAREKKFIPREFNYSEELIDQLKKEHDSAASLEQSLRVQLVRLAKTAYVDVFINWFHIKALRVYVESVLRYGLPPHFNIKIIAVPPKNLSKCKSELIDAFGFLGGNAFMKDKKGKINKQDTSLHQYASLVDTEYEPFVMYIINL
notes: V-ATPase V1 subunit C (Vma5), yeast; MBP was not cleaved; also called MBP-C; expressed subunit C; source: E. coli Rosetta2, purified (amylose column)
- Kd: 13.6 nM and 18.1 nM
